Laboratory results from patent publication US20220017612A1 (TILOS THERAPEUTICS, published 2022).
Blank lines part the entries; values can stand above or below the binder they belong to.

What was measured:
[1] = biological target: T1, fusion protein of a human IgG1 Fc domain and cynomolgus monkey LAP-TGFβ1 (human; cynomolgus monkey); assay: BLI, 2:1 model, component 1
T1 construct: also called cynomolgus monkey LAP-TGFβ-Fc
Procedure: (§1) The 20E6_H0.2aL1_IgG1 antibody was biotinylated using EZ-Link SulfoNHS-LC-Biotin (ThermoFisher). A streptavidin-functionalized tip was equilibrated in binding buffer (10 mM sodium phosphate, 150 mM sodium chloride, 1% (w/v) bovine serum albumin, 0.05% (w/v) sodium azide, pH 7.4) and dipped in a 10 μg/mL solution of biotinylated anti-LAP in binding buffer for 30 seconds to load the tip with antibody. The antibody-loaded tip was then washed in binding buffer and placed in a solution containing 0-24 nM of a fusion protein having a human IgG1 Fc domain fused to either human LAP-TGFβ1, human LAP-TGFβ2 or human LAP-TGFβ3. The antigen was allowed to bind to antibody for 5 minutes (association phase), and then the tip was moved to binding buffer (dissociation phase). The association and dissociation phases were fit to a 2:1 heterogenous ligand binding model to determine the binding rate constants. As shown in FIG. 21A and Table 17, 20E6_H0.2aL1_IgG1 bound with sub-nanomolar affinity to human LAP-TGFβ1, but not to human LAP-TGFβ2 (FIG. 21B) or LAP-TGFβ3 (FIG. 21C).
(§2) The binding of 20E6_H0.2aL1_IgG1 antibody and 20E6_H0.2aL1_hIgG4mut antibody to LAP-TGFβ1 of various species was examined by bio-layer interferometry using the method described in Example 12, except that the antibody-loaded tip was placed in a solution containing 0-24 nM of a fusion protein having a human IgG1 Fc domain fused to either mouse, rat, cynomolgus monkey, or human LAP-TGFβ1.

[2] = biological target: T2, fusion protein of a human IgG1 Fc domain and human LAP-TGFβ1 (human, UniProt P01137 30-390); assay: BLI, 2:1 model, component 1
T2 construct: printed both as Fc-huB1 and LAP-TGFβ-Fc; also called Fc-huB1; Fc-human LAP
Procedure: as §1, §2

[3] = biological target: T3, fusion protein of a human IgG1 Fc domain and mouse LAP-TGFβ1 (human; mouse, UniProt P04202 30-390); assay: BLI, 2:1 model, component 1
T3 construct: also called mouse LAP-TGFβ-Fc
Procedure: as §1, §2

[4] = biological target: T4, fusion protein of a human IgG1 Fc domain and rat LAP-TGFβ1 (human; rat, UniProt P17246 30-390, limits assumed); assay: BLI, 2:1 model, component 1
T4 construct: also called rat LAP-TGFβ-Fc
Procedure: as §1, §2

[5] = biological target: T3, fusion protein of a human IgG1 Fc …; assay: BLI, 2:1 model, component 2
Procedure: as §1, §2

[6] = biological target: T2, fusion protein of a human IgG1 Fc …; assay: BLI, 2:1 model, component 1; remark: listed apart in the source
Procedure: A streptavidin-functionalized tip was equilibrated in binding buffer (10 mM sodium phosphate, 150 mM sodium chloride, 1% (w/v) bovine serum albumin, 0.05% (w/v) sodium azide, pH 7.4) and dipped in a 5 μg/mL solution of biotinylated antibody (i.e., 20E6_H0.2aL1_hIgG1, murine 16F4, or MHG8, a GARP-specific murine IgG2a described in Lienart et al. Science 2018; 362:952-956) in binding buffer for 30 seconds to load the tip with antibody. The antibody-loaded tip was then washed in binding buffer and placed in a solution containing 0-24 nM of a fusion protein containing a human IgG1 Fc domain fused to either human LAP-TGFβ1, the soluble GARP-LAP-TGFβ1 complex, or the soluble ECR3E-LAP-TGFβ1 complex. The antigen was allowed to bind to antibody for 5 minutes (association phase), and then the tip was moved to binding buffer (dissociation phase). The binding and dissociation data for 16F4 and MHG8 were well-fit by a 1:1 binding model. The association and dissociation phases for 20E6_H0.2aL1_hIgG1 antibody were fit to a 2:1 heterogenous ligand binding model to determine the binding rate constants.
As shown in FIG. 24 and Table 21, the 20E6_H0.2aL1_hIgG1 antibody bound to free LAP-TGFβ1 and the soluble GARP-LAP-TGFβ1 complex with nanomolar affinity, but not to the ECR3E-LAP-TGFβ1 complex. As expected, the anti-GARP antibody (MHG8) bound to the GARP-LAP-TGFβ1 complex, but not to free LAP-TGFβ1 or the ECR3E-LAP-TGFβ1 complex. 16F4 bound tightly to all three constructs.

[7] = biological target: T2, fusion protein of a human IgG1 Fc …; assay: BLI, 2:1 heterogeneous ligand model, component 2
Procedure: as §1

[8] = biological target: T2, fusion protein of a human IgG1 Fc …; assay: BLI, antibody on tip, 1:1 model
Procedure: Binding to human TGFβ1 of a subset of candidates was also tested by bio-layer interferometry (Octet). A streptavidin coated tip was equilibrated for 60 seconds in binding buffer (10 mM sodium phosphate, 150 mM sodium chloride, 1% bovine serum albumin, 0.05% sodium azide). The tip was then dipped in 10 μg/mL biotinylated antibody in binding buffer. After 15 seconds, the tip was washed in binding buffer for 60 seconds, and then dipped in 0-24 nM Fc-human LAP. Analyte association was measured for 5 minutes. The tip was transferred to binding buffer alone, and analyte dissociation was measured for 5 minutes. The association and dissociation data were fit to a 1:1 binding model.

T2 sequence (P01137 30-390 limits assumed): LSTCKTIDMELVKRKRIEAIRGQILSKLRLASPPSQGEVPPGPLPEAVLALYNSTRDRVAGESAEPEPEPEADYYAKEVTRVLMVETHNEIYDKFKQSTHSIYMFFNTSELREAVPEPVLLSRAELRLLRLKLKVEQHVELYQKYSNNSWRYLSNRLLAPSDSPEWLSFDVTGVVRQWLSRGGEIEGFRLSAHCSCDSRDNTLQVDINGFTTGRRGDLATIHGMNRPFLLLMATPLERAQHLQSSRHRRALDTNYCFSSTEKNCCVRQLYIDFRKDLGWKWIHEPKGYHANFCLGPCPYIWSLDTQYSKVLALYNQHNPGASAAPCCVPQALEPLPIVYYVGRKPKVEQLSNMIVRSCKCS
T4 sequence (P17246 30-390 limits assumed): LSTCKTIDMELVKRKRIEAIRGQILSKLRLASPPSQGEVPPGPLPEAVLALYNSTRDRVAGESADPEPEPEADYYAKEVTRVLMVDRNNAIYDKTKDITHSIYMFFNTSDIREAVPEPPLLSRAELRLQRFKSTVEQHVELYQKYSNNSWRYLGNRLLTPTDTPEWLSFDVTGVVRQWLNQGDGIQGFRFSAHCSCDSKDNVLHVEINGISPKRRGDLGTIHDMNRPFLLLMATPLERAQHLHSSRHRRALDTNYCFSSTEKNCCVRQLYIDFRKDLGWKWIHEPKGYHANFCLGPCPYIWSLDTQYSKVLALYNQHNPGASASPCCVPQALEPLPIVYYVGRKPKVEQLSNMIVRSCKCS
T3 sequence (P04202 30-390 limits assumed): as the sequence (P17246 30-390 limits assumed) above, with D93E, T99S, F131L, T134S, V202K counted along it

- Kd [1]: 15.8 nM
- koff [1]: 0.0394 s⁻¹
- kon [1]: 2.49e+06 M⁻¹ s⁻¹
- Kd [2]: 16.5 nM
- koff [2]: 0.0355 s⁻¹
- kon [2]: 2.15e+06 M⁻¹ s⁻¹
- Kd [3]: 14.2 nM
- koff [3]: 0.0343 s⁻¹
- kon [3]: 2.42e+06 M⁻¹ s⁻¹
- Kd [4]: 13.4 nM
- koff [4]: 0.0441 s⁻¹
- kon [4]: 3.3e+06 M⁻¹ s⁻¹
- Kd [5]: 0.56 nM
- koff [5]: 0.00039 s⁻¹
- kon [5]: 700000 M⁻¹ s⁻¹
- Kd [6]: 16.2 nM
- koff [6]: 0.0406 s⁻¹
- kon [6]: 2.51e+06 M⁻¹ s⁻¹
- Kd [7]: 0.35 nM
- koff [7]: 0.000409 s⁻¹
- kon [7]: 1.18e+06 M⁻¹ s⁻¹
B1: 20E6_H0.2aL1_hIgG1 (antibody)
heavy: not shown
light: DIQMTQSPSSLSASVGDRVTITCRASQDITNYLNWYQQKPGKAVKLLIYYTSRLHSGVPSRFSGSGSGTDYTLTISSLQPEDFATYFCQQGDTLPWTFGQGTKLEIKRTVAAPSVFIFPPSDEQLKSGTASVVCLLNNFYPREAKVQWKVDNALQSGNSQESVTEQDSKDSTYSLSSTLTLSKADYEKHKVYACEVTHQGLSSPVTKSFNRGEC
notes: also called 20E6_H0.2aL1_IgG1; humanized 20E6

- Kd [8]: 3.74 nM
- koff [8]: 0.00168 s⁻¹
- kon [8]: 450000 M⁻¹ s⁻¹
B2: 22F9_hIgG1 (antibody, V domains shown)
VH: QVQLQQPGAELVKPGASVKLSCKASGYTFTSYWMHWVKQRPGQGLEWIGMIHPNSGSTNYNEKFKSKATLTVDKSSSTAYMQLSSLTSEDSAVYYCAYYDYDGFFDVWGTGTTVTVSS
VL: DIVLTQSPASLDVSLGQRATISCRASKSVSTSGYSYMHWYQQKSGQPPKLLIYLASNLESGVPARFSGSGSGTHFTLNIHPVEEEDAATYYCQHSRELPYTFGGGTKLEIK
